The values below come from article PMC4032492, “Molecular mechanism of Aurora A kinase autophosphorylation and its allosteric activation by TPX2” (eLife, 2014).

Data set [1] addresses dephosphorylated Aurora A kinase 122-403 (human) (UniProt O14965). As to the kind of experiment: SAXS; Aurora A 0.33-6.6 mg/ml with 1 mg/mL TPX2 1-25, 500 μM AMPPCP, kinase assay buffer, 20°C; curves fitted with monomer and dimer of the X-ray structures.
The target is the same in data set [2]. Description: AUC; sedimentation velocity, 50,000 rpm, 18°C; 100-160 μM Aurora A + 500 μM AMPPCP, with or without 100 μM TPX2 1-25, kinase assay buffer; dimer to monomers.
Data set [3] shares this target. As to the kind of experiment: AUC + other: SAXS; estimate from the concentration dependence of the dimer in AUC and SAXS; dimer to monomers.
Data set [4] deals with the molecule itself. Description: AUC; sedimentation velocity, 50,000 rpm, 18°C; 100-160 μM Aurora A + 500 μM AMPPCP, with or without 100 μM TPX2 1-25, kinase assay buffer; dimer to monomers.
The target of data set [5] is T1, dephosphorylated Aurora A kinase 122-403 (human, UniProt O14965 122-403).
T1 chain: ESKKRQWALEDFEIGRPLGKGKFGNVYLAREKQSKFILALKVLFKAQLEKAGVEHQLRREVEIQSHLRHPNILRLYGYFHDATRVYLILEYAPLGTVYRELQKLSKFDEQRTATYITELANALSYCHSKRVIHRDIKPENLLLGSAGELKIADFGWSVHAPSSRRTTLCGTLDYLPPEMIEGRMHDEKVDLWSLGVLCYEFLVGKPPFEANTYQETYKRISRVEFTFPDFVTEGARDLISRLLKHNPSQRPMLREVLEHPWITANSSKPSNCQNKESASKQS
Description: ITC. (In general: In ITC the heat of successive injections is recorded.)

For data set [6], the target named is T2, phosphorylated Aurora A kinase 122-403 (human, UniProt O14965 122-403, heavily phosphorylated (multiple sites, by autophosphorylation and E. coli kinases during expression); T288 in the activation loop phosphorylated).
T2 chain: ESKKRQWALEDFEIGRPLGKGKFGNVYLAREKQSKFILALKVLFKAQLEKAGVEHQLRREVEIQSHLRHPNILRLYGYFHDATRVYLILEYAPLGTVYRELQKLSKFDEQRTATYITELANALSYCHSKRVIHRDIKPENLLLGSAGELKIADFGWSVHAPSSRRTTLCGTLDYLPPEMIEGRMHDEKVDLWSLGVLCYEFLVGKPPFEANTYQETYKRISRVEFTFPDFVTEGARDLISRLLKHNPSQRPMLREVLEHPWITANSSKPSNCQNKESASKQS
Description: ITC; phosphorylated Aurora A.

For the next data set, the target named is T3, Aurora A^122−403 T288V (human, UniProt O14965 122-403, T288V).
T3 sequence (looked up): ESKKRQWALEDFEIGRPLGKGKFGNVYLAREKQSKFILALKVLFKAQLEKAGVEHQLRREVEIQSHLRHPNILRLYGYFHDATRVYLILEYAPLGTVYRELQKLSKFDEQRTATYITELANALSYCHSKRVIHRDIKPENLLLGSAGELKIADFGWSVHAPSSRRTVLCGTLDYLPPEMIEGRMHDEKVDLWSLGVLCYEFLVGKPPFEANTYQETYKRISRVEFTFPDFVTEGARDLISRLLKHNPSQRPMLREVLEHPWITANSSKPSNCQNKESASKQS
As to the kind of experiment: cell-based or functional assay.

For data set [7], the target named is T4, dephosphorylated Aurora A kinase 122-403 (human, UniProt O14965 122-403).
T4 construct: Aurora A kinase, human, residues 122-403, codon-optimized, completely dephosphorylated (confirmed by MS); Monomer and dimer are both seen in solution; also called deP Aurora A; deP Aurora A^122−403
T4 sequence (looked up): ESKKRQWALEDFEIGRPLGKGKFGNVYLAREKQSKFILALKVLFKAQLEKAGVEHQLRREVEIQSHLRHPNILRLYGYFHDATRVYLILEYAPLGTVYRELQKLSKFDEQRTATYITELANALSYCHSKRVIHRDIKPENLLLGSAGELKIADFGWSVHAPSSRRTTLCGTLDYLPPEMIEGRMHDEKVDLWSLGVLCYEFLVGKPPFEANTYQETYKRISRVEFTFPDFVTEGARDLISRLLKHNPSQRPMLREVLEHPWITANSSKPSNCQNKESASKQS
As to the kind of experiment: ITC; Nano ITC, 1 μl injections every 180 s, 25°C; 20 mM TrisHCl, 200 mM NaCl, 3% glycerol, 1 mM TCEP, pH 7.50; independent fit model; Aurora A 13-90 μM, TPX2 250-940 μM. Conditions: both partners purified.

With “dephosphorylated Aurora A kinase 122-403 (from UniProt O14965 122-403) (domain or fragment)”, the percent dimer in data set [1] was 9%. For the same molecule, the stoichiometry N in data set [2] was determined as 2. Further, the Kd in data set [3] is greater than 300000 nM.

B1: Aurora A^125−392 D274A (domain or fragment, human, UniProt O14965 125-392, looked up)
chain: KRQWALEDFEIGRPLGKGKFGNVYLAREKQSKFILALKVLFKAQLEKAGVEHQLRREVEIQSHLRHPNILRLYGYFHDATRVYLILEYAPLGTVYRELQKLSKFDEQRTATYITELANALSYCHSKRVIHRDIKPENLLLGSAGELKIAAFGWSVHAPSSRRTTLCGTLDYLPPEMIEGRMHDEKVDLWSLGVLCYEFLVGKPPFEANTYQETYKRISRVEFTFPDFVTEGARDLISRLLKHNPSQRPMLREVLEHPWITANSSKPSN
notes: Aurora A kinase, human, residues 125-392, D274A; The purification of this mutant is not described on its own; also called kinase-dead Aurora A D274A; catalytically impaired D274A mutant; source: E. coli, purified (short 125-392 construct in pET28a)
For B1, the “stoichiometry N” value in data set [4] is 2.
On to MSQVKSSYSYDAPSDFINFSSLDDEGDTQNIDSWFEEKANLENKL [TPX2^1−45], for which the figures for the Kd in data set [5] and in data set [6] were 5000 nM and 2000 nM, respectively.
For MSQVKSSYSYDAPSDFINFSSLDDE [TPX2^1−25], the Kd worked out at 2000 nM in data set [5] and 1800 nM in data set [6].

B2: TPX2^1−147 (Targeting Protein for Xklp2, residues 1-147) (domain or fragment, UniProt Q9ULW0 1-147, looked up)
chain: MSQVKSSYSYDAPSDFINFSSLDDEGDTQNIDSWFEEKANLENKLLGKNGTGGLFQGKTPLRKANLQQAIVTPLKPVDNTYYKEAEKENLVEQSIPSNACSSLEVEAAISRKTPAQPQRRSLRLSAQKDLEQKEKHHVKMKAKRCAT
notes: TPX2 (Targeting Protein for Xklp2), residues 1-147; also called longer TPX2 variant
B2: the “KA from the dose-dependence of TPX2 1-147 on AP phosphorylation kinetics by 1 μM Aurora A T288V” value in the data set with Aurora A^122−403 T288V is 1 µM. Moreover, the Kd is 1100 ± 100 nM in data set [7] and 2900 nM in data set [6].

A word on the stoichiometry N: it is a count of units in the complex or per binding partner. The term Kd denotes the concentration at which binding is half-saturated.
